This note sets out measurements from article PMC5979607, “Crystal Structure of the Isocitrate Dehydrogenase 2 from Acinetobacter baumannii (AbIDH2) Reveals a Novel Dimeric Structure with Two Monomeric-IDH-Like Subunits” (International Journal of Molecular Sciences, 2018).

Data set [1] concerns NC(=O)c1ccc[n+]([C@@H]2O[C@H](COP(=O)(O)OP(=O)(O)OC[C@H]3O[C@@H](n4cnc5c(N)ncnc54)[C@H](OP(=O)(O)O)[C@@H]3O)[C@@H](O)[C@H]2O)c1. Description: purified protein. To be noted: Mn2+ (2 mM MnCl2), 1.0 mM isocitrate, 35 mM Tris-HCl pH 7.5, 25 °C, varied: cofactor.
Data set [2] has as its system O=C(O)CC(C(=O)O)C(O)C(=O)O. Description: purified protein. The settings on record: Mn2+ (2 mM MnCl2), NADP+ co-substrate, 35 mM Tris-HCl pH 7.5, 25 °C, DL-isocitrate in the assay.
Data set [3] concerns the target Isocitrate dehydrogenase 2 from Acinetobacter baumannii (AbIDH2) (Acinetobacter baumannii). Description: SEC; analytical gel filtration, Superdex 200 10/300 column, 50 mM NaH2PO4 pH 7.5, 300 mM NaCl, flow rate 0.5 mL/min; mass from a calibration curve.
Data set [4] has the same target. Description: AUC; sedimentation velocity, Beckman XL-A, An-60 Ti rotor, 20 °C, 45,000 g, continuous c(s) distribution.

For the substance “AbIDH2 (Acinetobacter baumannii ATCC 19606 = CIP 70.34 = JCM 6841)”, in data set [1], the Km stood at 94 ± 6 µM, the catalytic constant (kcat) was found to be 36.9 ± 1.2 s⁻¹ and the kcat/Km stood at 390000 M⁻¹ s⁻¹. Moreover, in data set [2], the Km came to 20.6 ± 3.1 µM and the kcat was 39.2 ± 2.1 s⁻¹.
Take “Isocitrate dehydrogenase 2 from Acinetobacter baumannii (AbIDH2) (enzyme)”: the stoichiometry N in data set [3] and in data set [4] was 2 each time.
